B1: ATRX_(1,265–1,285), α-helix frame only (αDID), wild type peptide [human] / DAXX helical bundle (DHB) domain of death domain-associated protein (DAXX), aa 55-144 [not stated] (parent complex)
chain 1: NDPENRIAKKMLLEEIKANLS
chain 2: GKKCYKLENEKLFEEFLELCKMQTADHPEVVPFLYNRQQRAHSLFLASAEFCNILSRVLSRARSRPAKLYVYINELCTVLKAHSAKKKLN

Variants of: B1
Assay: ITC

| Variant | Kd [µM] |
| --- | --- |
| chain 1 NDPENRIAAKMLLEEIKANLS [chain 1 K9A] | 2.3 |
| chain 1 NDPQNRIAKKMLLEEIKANLS [chain 1 E4Q] | 5.6 |
| chain 1 NNPENRIAKKMLLEEIKANLS [chain 1 D2N] | 7 |
| chain 1 NDPENRIAKKMLLEQIKANLS [chain 1 E15Q] | 3.2 |

— article PMC5636754, “Structural and biochemical characterization of DAXX-ATRX interaction” (Protein & Cell, 2017)
